Assay results published in publication PMC6169973, “RAIDD mutations underlie the pathogenesis of thin lissencephaly (TLIS)” (PLoS ONE, 2018).

B1: PIDD DD (777-883) (domain or fragment, UniProt Q9HB75 777-883, looked up)
chain: LNLGDAETGFLTQSNLLSVAGRLGLDWPAVALHLGVSYREVQRIRHEFRDDLDEQIRHMLFSWAERQAGQPGAVGLLVQALEQSDRQDVAEEVRAVLELGRRKYQDS
notes: PIDD (p53-induced protein with a death domain), death domain, residues 777-883; also called PD-DD; PIDD death domain; source: E. coli BL21 (DE3) RILP, purified (Ni-NTA, size exclusion S-200)
B2: RAIDD DD (94-199), wild type (domain or fragment)
chain: not shown
notes: RAIDD (RIP-associated Ich-1/Ced-3 homologous protein with a death domain), death domain, residues 94-199; also called RD-DD; RAIDD death domain; source: E. coli BL21 (DE3) RILP, purified (Ni-NTA, size exclusion S-200)

Key:
[1] = target: T1, full-length RAIDD (1-199), wild type (UniProt P78560 1-199); test: SEC; RAIDD (full length, DD or mutant) mixed with a molar excess of PIDD DD, 30 min at room temperature; Superdex 200 HR 10/30 in 20 mM Tris-HCl pH 8.0, 150 mM NaCl; fractions on SDS-PAGE, Coomassie; conditions: both partners purified
T1 construct: RAIDD, full length, residues 1-199 (CARD and DD); also called RD; wild-type full-length RAIDD; source: E. coli BL21 (DE3) RILP, purified (Ni-NTA, size exclusion S-200)

PIDD DD (777-883) = target: B1; test: as above; conditions: both partners purified

T1 sequence (P78560 whole entry, the tested form may be a part): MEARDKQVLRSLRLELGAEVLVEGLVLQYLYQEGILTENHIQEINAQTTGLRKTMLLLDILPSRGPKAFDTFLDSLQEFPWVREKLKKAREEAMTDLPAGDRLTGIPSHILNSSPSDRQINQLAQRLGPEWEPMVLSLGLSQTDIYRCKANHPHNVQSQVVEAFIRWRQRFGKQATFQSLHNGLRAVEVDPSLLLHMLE

B1: binds [1].

B2: binds (PIDD DD (777-883)).
